In patent US20230250193A1 (PROVIVA THERAPEUTICS HONG KONG, published 2023):

Biological target: T1, human FAPα (fibroblast activation protein-α) expressed on cells (human, UniProt Q12884 1-760)
T1 construct: also called cells expressing FAP
T1 sequence: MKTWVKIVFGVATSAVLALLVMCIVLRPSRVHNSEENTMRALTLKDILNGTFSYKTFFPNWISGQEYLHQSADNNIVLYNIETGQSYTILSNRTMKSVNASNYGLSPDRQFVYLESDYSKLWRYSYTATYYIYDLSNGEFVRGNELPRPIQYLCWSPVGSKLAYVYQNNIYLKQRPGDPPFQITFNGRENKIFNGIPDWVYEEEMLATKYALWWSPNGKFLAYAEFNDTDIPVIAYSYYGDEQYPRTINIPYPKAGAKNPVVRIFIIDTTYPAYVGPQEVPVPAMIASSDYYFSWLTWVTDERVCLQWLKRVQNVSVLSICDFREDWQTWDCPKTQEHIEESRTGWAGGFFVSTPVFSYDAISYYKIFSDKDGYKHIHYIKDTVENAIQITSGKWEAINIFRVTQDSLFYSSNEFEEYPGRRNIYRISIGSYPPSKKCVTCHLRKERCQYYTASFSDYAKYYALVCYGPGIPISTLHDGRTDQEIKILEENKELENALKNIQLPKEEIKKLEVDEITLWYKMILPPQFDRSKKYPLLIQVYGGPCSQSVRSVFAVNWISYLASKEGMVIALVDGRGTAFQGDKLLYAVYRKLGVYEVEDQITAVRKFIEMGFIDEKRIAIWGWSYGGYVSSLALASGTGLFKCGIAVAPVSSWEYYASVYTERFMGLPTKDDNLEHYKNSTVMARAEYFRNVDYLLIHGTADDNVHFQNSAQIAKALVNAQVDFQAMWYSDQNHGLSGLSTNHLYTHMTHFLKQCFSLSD
Test: flow cytometry on FAPα-expressing cells, PE-labeled anti-human IgG detection
Procedure: FACS analysis. FACS analysis was performed for purified antibodies. Binding of Expi293 expression supernatant or purified antibodies to FAPα and/or B7H3 expressing cells was determined by flow cytometry. lx […] were incubated for 1 hour at 4° C. with purified antibodies. After washing twice with cold FACS buffer (PBS containing 1% BSA and 0.1% sodium azide), cell surface bound antibody was detected by incubating the cells with phycoerythrin (PE)-labeled anti-human IgG antibody (Jackson Immuno, Cat #109-116-098) for 1 hour at 4° C. Cells were washed twice in FACS buffer and analyzed using Guava EasyCyte HT (Merck Millipore).

binding result: binds
B1: P28832158 (antibody, human IgG1, kappa, V domains shown)
VH: QVQLVQSGAEVKKPGASVKVSCKASGYTFTMNIIHWVRQAPGQGLEWMGWIHPGSGAIKYAQKLQGRVTMTTDTSTSTAYMELRSLRSDDTAVYYCARHGGTGRGAMDYWGQGTLVTVSS
VL: EIVLTQSPGTLSLSPGERATLSCRASQSVSTSAYSYMHWYQQKPGQAPRLLIYLASNLESGIPDRFSGSGSGTDFTLTISRLEPEDFAVYYCQQSRELPYTFGQGTKLEIKR
notes: Produced in Expi293 cells; also called M-87_G1; VH6.32/VL7.00
